Laboratory results as given in paper PMC8171346, “Anomalous structural dynamics of minimally frustrated residues in cardiac troponin C triggers hypertrophic cardiomyopathy†” (Chemical Science, 2021).

Tests used:
[1] = molecular target: human cardiac troponin C, wild type (human, UniProt P63316 1-161); assay: NMR titration; 1H-15N HSQC spectra at 37 °C of WT or C84Y cTnC in the Ca2+-bound (primed) state, without peptide and with increasing concentrations of peptide (15, 40, 70, 120, 150 and 200 μM); normalized 1H chemical shifts against peptide concentration; conditions: both partners purified
[2] = molecular target: human cardiac troponin C C84Y (human, UniProt P63316 1-161, C84Y); assay: as above; conditions: both partners purified

Kd [1]: 59 ± 3.6 µM
Kd [2]: 66 ± 5.5 µM
B1: inhibitory cardiac TnI peptide iTnI128-147 (peptide)
peptide: Ac-LTQKIFDLRGKFKRPTLRRV-NH2
notes: source: synthetic peptide (Genscript, purity higher than 95%)
